The values below come from US7312045B2, “Aggrecanase-1 and -2 peptide substrates and methods” (Ortho-McNeil Pharmaceutical, Inc., priority 2002, dated 2007).

Holding throughout (format): biochemical
Assay [1] addresses T1, aggrecanase-2 (Homo sapiens, UniProt Q9UNA0).
T1 construct: made in house; host or cells: Sf9 cells (baculovirus, pFastBac1)
T1 sequence (Q9UNA0 262-482): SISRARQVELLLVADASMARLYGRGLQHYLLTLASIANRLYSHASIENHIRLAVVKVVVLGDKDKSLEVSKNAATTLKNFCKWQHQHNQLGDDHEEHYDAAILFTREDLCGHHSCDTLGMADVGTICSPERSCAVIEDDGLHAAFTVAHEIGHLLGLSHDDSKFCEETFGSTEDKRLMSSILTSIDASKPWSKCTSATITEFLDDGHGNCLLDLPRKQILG
Nature of the assay: IC50 analysis for inhibition of aggrecanase-2, FasL1 FRET peptide cleavage. Conditions: FasL1 225 μM, 60 minutes at room temperature, inhibitor 0.1 to 12.5 μM. The method, then: Aggrecanase-2 (0.5 to 1 μg of protein, 17 to 33 picomoles) was diluted in assay buffer (50 mM HEPES pH 7.5, 10 mM CaCl2, 0.1M NaCl, 0.05% Brij-35). Samples were prepared containing Inhibitor A, B or C (shown above) at final concentrations ranging from 0.1 to 12.5 μM (final DMSO concentration of 1.5%). Duplicate assays were run for each concentration of Inhibitor A, B and C (purchased from Peptides International, TAPI-0, Cat. No. INH 3850-P1) for 60 minutes at room temperature. The reaction was initiated by the addition of FasL1 peptide substrate to a final concentration of 225 μM. The reaction rates over 60 minutes at room temperature, in the absence (control) and presence of various concentrations of the inhibitor, were determined by linear regression of the data points. The reaction rate data in FIG. 4B were fitted by non-linear regression using the program Grafit (Erithacus Software).

The target of assay [2] is T2, truncated aggrecanase-1 (Homo sapiens, UniProt O75173).
T2 construct: made in house; host or cells: Sf9 cells (baculovirus, pFastBac1)
T2 sequence (O75173 213-437): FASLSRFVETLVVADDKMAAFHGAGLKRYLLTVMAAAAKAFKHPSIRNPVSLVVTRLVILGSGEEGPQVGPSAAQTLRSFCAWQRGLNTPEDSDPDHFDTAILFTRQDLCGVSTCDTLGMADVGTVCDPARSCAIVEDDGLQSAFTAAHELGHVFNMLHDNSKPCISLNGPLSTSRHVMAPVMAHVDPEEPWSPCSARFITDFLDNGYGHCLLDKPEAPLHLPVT
In words: FRET peptide substrate screening, truncated aggrecanase-1. Conditions: peptide 100 uM, 60 minutes at room temperature. An excerpt:
Fifty-six different peptides were synthesized to test for protease activity (see Table 3 below). The peptides included a collection of substrates for other proteases, as well as a number of sequences corresponding to membrane proximal cleavage sites of various proteins postulated to be released by metalloproteases (including those published by (Roghani et al., J. Biol. Chem. 274:3531-340, 1999) for ADAM9/MDC9). In order to use the principle of fluorescence resonance energy transfer, or FRET, the peptides were labeled at the C-terminus with Dabcyl and at the N-terminus with Aedans (or vice versa). Thus cleavage of the peptides was monitored by the increase in Aedans fluorescence at 460 nm (excitation 360 nm) as a result of the decrease in proximity of the Dabcyl quencher. […]
The reaction was initiated by the addition of peptide substrate to a final concentration of 100 uM for truncated aggrecanase-1 and 50 uM for truncated aggrecanase-2. The assays were typically run for 60 minutes at room temperature and the slope of the kinetic increase in fluorescence was determined to calculate the rate of the reaction. […]

Assay [3] concerns the target T3, truncated aggrecanase-2 (Homo sapiens, UniProt Q9UNA0).
T3 construct: made in house; host or cells: Sf9 cells (baculovirus, pFastBac1)
T3 sequence (Q9UNA0 262-482): T1 sequence (Q9UNA0 262-482)
In words: FRET peptide substrate screening, truncated aggrecanase-2. The conditions noted are these: peptide 50 uM, 60 minutes at room temperature. The source says: Fifty-six different peptides were synthesized to test for protease activity (see Table 3 below). The peptides included a collection of substrates for other proteases, as well as a number of sequences corresponding to membrane proximal cleavage sites of various proteins postulated to be released by metalloproteases (including those published by (Roghani et al., J. Biol. Chem. 274:3531-340, 1999) for ADAM9/MDC9). In order to use the principle of fluorescence resonance energy transfer, or FRET, the peptides were labeled at the C-terminus with Dabcyl and at the N-terminus with Aedans (or vice versa). Thus cleavage of the peptides was monitored by the increase in Aedans fluorescence at 460 nm (excitation 360 nm) as a result of the decrease in proximity of the Dabcyl quencher. The assay was performed by diluting the truncated aggrecanase-1 (approximately 2.5 to 5 μg of protein, 85 to 167 picomoles, SEQ ID NO:8) or truncated aggrecanase-2 (approximately 0.5 to 1 μg of protein, 17 to 33 picomoles, SEQ ID NO:9), in assay buffer (50 mM HEPES pH 7.5, 10 mM CaCl2, 0.1M NaCl and 0.05% (w/v) Brij-35 detergent (Sigma).
The reaction was initiated by the addition of peptide substrate to a final concentration of 100 uM for truncated aggrecanase-1 and 50 uM for truncated aggrecanase-2. The assays were typically run for 60 minutes at room temperature and the slope of the kinetic increase in fluorescence was determined to calculate the rate of the reaction.
FIG. 2 illustrates the relative activities for the 56 different peptides, A1 to H7 (only every alternate peptide is numbered in FIG. 2) expressed in arbitrary, but relative units. […] Peptide D7 (16 amino acids) corresponds to the sequence within aggrecan containing the Glu373-Ala374 aggrecanase cleavage site.

The target of assay [4] is T4, Aggrecanase-1 (Homo sapiens, UniProt O75173).
T4 construct: made in house; host or cells: Sf9 cells (baculovirus, pFastBac1)
T4 sequence (O75173 213-437): T2 sequence (O75173 213-437)
Nature of the assay: Drug screening assay, aggrecanase-1 FasL1 FRET peptide cleavage. Conditions: inhibitor 7.5 micromolar, FasL1 225 μM, 200 minutes at room temperature. The method, then: Aggrecanase-1 ([…] of protein, 85 to 167 picomoles) was diluted in assay buffer (50 mM HEPES pH 7.5, 10 mM CaCl2, 0.1M NaCl, 0.05% Brij-35). Samples were prepared containing putative inhibitors A (Chen et al. Biorg. Med. Chem. Lett. 6(13):1601-1606, 1996) or B (Bailey, et al. Biorg. Med. Chem. Lett. 9(21):3165-3170, 1999), shown below, at a final concentration of 7.5 micromolar. The final % DMSO in the assay was 3% and it was determined experimentally that this concentration was not detrimental to the activity of the enzyme. The reaction was initiated by the addition of FasL1 peptide substrate to a final concentration of 225 μM and readings were taken at one-minute intervals, for a total of 200 minutes at room temperature.
The assay was always performed at enzyme and substrate concentrations where the activity was linearly related to enzyme concentration and where the increase in fluorescence (reaction rate) was linear for at least the time of the assay. From FIG. 4A, it can be seen that for kinetic analysis, the signal-to-noise ratio is effectively infinite, as no change in the background (blank, no enzyme) is observed over the time of the assay. For endpoint measurements, the enzyme and substrate concentrations could be adjusted to achieve the desired signal-to-noise ratio. […]

The target of assay [5] is T1, aggrecanase-2. Nature of the assay: Kinetic analysis of aggrecanase-2 peptide cleavage (Km, Vm). Conditions: aggrecanase-2, 60 minutes at room temperature, non-linear fitting; for Vm: rfu = relative fluorescence units. The method, then: To confirm the screening assay, aggrecanase-2 was further analyzed for its rate of catalysis using 2 different peptides. The assay was performed by diluting the aggrecanase-2 in assay buffer (50 mM HEPES pH 7.5, 10 mM CaCl2, 0.1M NaCl and 0.05% Brij-35). […] The assay was run for 60 minutes at room temperature. FIG. 3 illustrates the proteolytic activity (in relative fluorescence units per minute) as a function of peptide concentration for peptides FasL1 and 29CD23. The curves were fitted to the data with the program Grafit (Erithacus Software Lmited). The Vmax and Km for each substrate were calculated by non-linear fitting of the data. The cleavage site for aggrecanase-2 within each peptide was determined by LC-MS analysis to be between a glutamic acid and leucine residues in each case, as indicated in Table 2 by a carot within each peptide sequence. […] However, these are clearly not the only requirements for efficient cleavage, as a number of the 56 peptides tested have similar residues and were not cleaved by the aggrecanases.

The target of assay [6] is T5, MMP7 (Homo sapiens, UniProt P09237).
T5 construct: purchased Chemicon CC1059
T5 sequence (P09237 95-267): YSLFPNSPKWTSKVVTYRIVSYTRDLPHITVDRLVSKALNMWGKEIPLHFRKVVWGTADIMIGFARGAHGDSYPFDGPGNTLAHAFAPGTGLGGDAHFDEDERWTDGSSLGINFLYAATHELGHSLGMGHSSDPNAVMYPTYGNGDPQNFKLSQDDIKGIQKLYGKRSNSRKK
Nature of the assay: Similar peptide substrate screening assay with MMP7. The conditions noted are these: similar screening assays.

Assay [7] concerns the target T6, MMP13 (Homo sapiens, UniProt P45452).
T6 construct: purchased Chemicon CC068
In words: Similar peptide substrate screening assay with MMP13. The conditions noted are these: similar screening assays.

Primed or numbered codes have the meaning given here. No end group written: not given here. *: point of attachment. Dabcyl′ = CN(C)c1ccc(/N=N/c2ccc(C(=O)*)cc2)cc1

With `CC(C)C[C@@H](CC(=O)NO)C(=O)N[C@@H](Cc1ccc2ccccc2c1)C(=O)N[C@@H](C)C(N)=O` [Inhibitor C, TAPI-0], the IC50 (commonly the midpoint of a concentration-inhibition curve) in assay [1] is 102 ± 23 nM.
On to “(Aedans)ERNITEGEARGSVIL(Dabcyl)K-amide (ERNITEGEARGSVILK(Dabcyl′)-NH2; not fully specified (residue 1, N-terminus); printed as (Aedans)ERNITEGEARGSVIL(Dabcyl)K-amide; also: Aedans label on N-terminal Glu (N-terminus or side chain not given here)) [Peptide D7]”, for which the “relative activity of truncated aggrecanase-1 for the peptide (FIG. 2)” value in assay [2] is “Neither truncated aggrecanase-1 nor truncated aggrecanase-2 showed any activity”. Also, in assay [3], the “relative activity of truncated aggrecanase-2 for the peptide (FIG. 2)” value is listed as “Neither truncated aggrecanase-1 nor truncated aggrecanase-2 showed any activity”.
Take `CC(C)(C)C(NC(=O)C(Cc1ccc2ccccc2c1)[C@H](O)C(=O)NO)C(N)=O` (stereo partly shown) [Inhibitor B]: in assay [4], the “inhibition of aggrecanase-1 enzyme activity (FIG. 4A)” value was “completely inhibited”. In assay [1], the IC50 was determined as 38 ± 8 nM.
As to “(Aedans)EADLSSFKSQEL(Dabcyl)K-amide (EADLSSFKSQELK(Dabcyl′)-NH2; not fully specified (residue 1, N-terminus); printed as (Aedans)EADLSSFKSQEL(Dabcyl)K-amide; also: Aedans label on N-terminal Glu (N-terminus or side chain not given here)) [Peptide 29CD23]”, the “relative activity of truncated aggrecanase-2 for the peptide (FIG. 2)” value in assay [3] is listed as “high activity”. In assay [5], the Km – broadly, the substrate concentration at which the rate is half of its maximum – was 40 µM and the Vm is 0.6 rfu/min.
As for `CC(C)C[C@@H](CC(=O)NO)C(=O)N[C@@H](CC(C)C)c1ncc(-c2ccccc2)[nH]1` [Inhibitor A], in assay [4], the “inhibition of aggrecanase-1 enzyme activity (FIG. 4A)” value is “completely inhibited”. In addition, in assay [1], half-maximal inhibition (IC50) required 118 ± 5 nM.
As for “(Aedans)EKELAELRESTS(Dabcyl)K-amide (EKELAELRESTSK(Dabcyl′)-NH2; not fully specified (residue 1, N-terminus); printed as (Aedans)EKELAELRESTS(Dabcyl)K-amide; also: Aedans label on N-terminal Glu (N-terminus or side chain not given here)) [FasL1]”, the “relative activity of truncated aggrecanase-1 for the peptide (FIG. 2)” value in assay [2] was “highest activity”. For the same compound, the “relative activity of truncated aggrecanase-2 for the peptide (FIG. 2)” value in assay [3] is listed as “highest activity”. In assay [5], the Km worked out at 80 µM and the Vm was 2.8 rfu/min. The “suitability as substrate for MMP7” value in assay [6] is recorded as “suitable substrate”. For the same compound, the “suitability as substrate for MMP13” value in assay [7] is on record as “suitable substrate”.
